Paper PMC11707698, “Structure of an ex vivoDrosophila TOM complex determined by single-particle cryoEM” (IUCrJ, 2025)

Target: the molecule itself
Assay: cryo-EM structure; single-particle cryoEM of the TOM core complex assembled in the fly retina, FLAG-purified as a whole and reconstituted into non-ionic amphipol; graphene-coated grids; C2 symmetry; 3.3 Å

B1: Drosophila Tom40 subunit fused to a C-terminal FLAG-HA epitope tag (natural protein, D. melanogaster)
chain: AALENPGTVEELHKKCKDIQAITFEGAKIMLNKGLSNHFQVSHTINMSNVVPSGYRFGATYVGTKEFSPTEAFPVLLGDIDPAGNLNANVIHQFSARLRCKFASQIQESKVVASQLTTDYRGSDYTLSLTVANPSIFTNSGVVVGQYLQSVTPALALGSELAYQFGPNVPGRQIAIMSVVGRYTAGSSVWSGTLGQSGLHVCYYQKASDQLQIGAEVETSLRMQESVATLAYQIDLPKANLVFRGGIDSNWQIFGVLEKRLAPLPFTLALSGRMNHVKNNFRLGCGLMIG
notes: Tom40, translocation pore of the TOM complex, Drosophila melanogaster; transgene UAS-Tom40-FLAG.HA (Bloomington stock); residues 55-344 are modelled in the structure; two copies stand in the two-pore core complex; also called Tom40-FLAG-HA; Tom40_FLAG-HA; source: transgenic D. melanogaster retina (GMR-GAL4, UAS-Tom40-FLAG-HA, co-expressed with Myc); solubilised fly head membranes, purified on …
- stoichiometry N: 2
